PMC7822592, “The half-life of the bone-derived hormone osteocalcin is regulated through O-glycosylation in mice, but not in humans” (eLife, 2020)
No end group written: not given here.

Legend:
[1] = test system: INS-1 832/3 cells; test: OCN stability in INS-1 832/3 cell culture media; type: in vitro ADME, rat; settings: 8 hours at 4°C without cells, ELISA
[2] = test system: INS-1 832/3 cells; test: OCN stability in INS-1 832/3 cell culture media; type: in vitro ADME, rat; settings: 8 hours with INS-1 cells at 37°C, ELISA
Experimental: The INS-1 832/3 rat insulinoma cell line (Millipore-Sigma) was cultured in RPMI-1640 with 11.1 mM D-glucose, supplemented with 2 mM L-glutamine, 1 mM sodium pyruvate, 10 mM HEPES, 0.05 mM β-mercaptoethanol and 10% FBS ([Hohmeier et al., 2000]). On day 1, cells were plated at 3 × 10^5 cells per well in 12-well plates and on day 5, cells were washed with PBS and incubated with culture media containing 5 mM D-glucose. Twenty-four hours later, cells were washed with PBS and incubated for 4 hr in culture media containing 1% FBS, 5 mM D-glucose and 0.1% BSA. OCN was added for 8 hr before supernatants and cells were harvested. ucOCN and O-gly ucOCN concentration were measured in supernatants by ELISA and cells were lyzed and RNA extracted as described in the material and methods section. Gene expression was analyzed using rat specific primers for Ins1 and Gapdh.

[3] = In vivo half-life assay, serum OCN after intraperitoneal injection in Bglap-/- mice; parameters: species or system mouse; settings: for serum OCN / in vivo half-life / % OCN from initial (relative to maximum at 30 min) / % OCN from initial, mean used for 1/2 life: 40 ng/g i.p.; for serum OCN: ELISA; for in vivo half-life: estimated from declining phase after maximum at 30 min, serum ELISA; for % OCN from initial (relative to maximum at 30 min) / % OCN from initial, mean used for 1/2 life: serum, fasted Bglap-/- mice
Experimental: For in vivo half-life assay, Bglap-/- male mice were injected intraperitoneally with 40 or 80 ng/g of body weight of mouse O-glycosylated ucOCN or non-glycosylated ucOCN, serum OCN level was analyzed at indicated time points using total mouse OCN ELISA. In all ex vivo and in vivo studies, mouse or human proteins were prepared in saline solution (0.9% NaCl) containing BSA (35 mg/ml) as a carrier.

## ucOCN: Non-glycosylated uncarboxylated mouse osteocalcin produced in bacteria (YLGASVPSPDPLEPTREQCELNPACDELSDQYGLKTAYKRIYGITI; ends and bridges not checked; cysteine pairing not given here; UniProt P86546 50-95, looked up)
[1]; replicate 1
  OCN in stimulation media: 0.15 ng/mL
[1]; replicate 2
  OCN in stimulation media: 0.18 ng/mL
[1]; replicate 3
  OCN in stimulation media: 0.17 ng/mL
[2]; replicate 1
  OCN in stimulation media: 0.037 ng/mL
[2]; replicate 2
  OCN in stimulation media: 0.028 ng/mL
[2]; replicate 3
  OCN in stimulation media: 0.03 ng/mL
[3]; Bglap-/- male mice fasted 16 hr, 15 min, mouse 1
  serum OCN: 21.6 ng/mL
[3]; Bglap-/- male mice fasted 16 hr, 15 min, mouse 2
  serum OCN: 16.5 ng/mL
[3]; Bglap-/- male mice fasted 16 hr, 15 min, mouse 3
  serum OCN: 22.3 ng/mL
[3]; Bglap-/- male mice fasted 16 hr, 15 min, mouse 4
  serum OCN: 21.8 ng/mL
[3]; Bglap-/- male mice fasted 16 hr, 30 min, mouse 1
  serum OCN: 29.0 ng/mL
[3]; Bglap-/- male mice fasted 16 hr, 30 min, mouse 2
  serum OCN: 18.8 ng/mL
[3]; Bglap-/- male mice fasted 16 hr, 30 min, mouse 3
  serum OCN: 19.1 ng/mL
[3]; Bglap-/- male mice fasted 16 hr, 30 min, mouse 4
  serum OCN: 16.7 ng/mL
[3]; Bglap-/- male mice fasted 16 hr, 60 min, mouse 1
  serum OCN: 21.9 ng/mL
[3]; Bglap-/- male mice fasted 16 hr, 60 min, mouse 2
  serum OCN: 14.4 ng/mL
[3]; Bglap-/- male mice fasted 16 hr, 60 min, mouse 3
  serum OCN: 15.0 ng/mL
[3]; Bglap-/- male mice fasted 16 hr, 60 min, mouse 4
  serum OCN: 14.8 ng/mL
[3]; Bglap-/- male mice fasted 16 hr, 90 min, mouse 1
  serum OCN: 15.6 ng/mL
[3]; Bglap-/- male mice fasted 16 hr, 90 min, mouse 2
  serum OCN: 12.2 ng/mL
[3]; Bglap-/- male mice fasted 16 hr, 90 min, mouse 3
  serum OCN: 12.9 ng/mL
[3]; Bglap-/- male mice fasted 16 hr, 90 min, mouse 4
  serum OCN: 13.2 ng/mL
[3]; Bglap-/- male mice fasted 16 hr, 120 min, mouse 1
  serum OCN: 11.8 ng/mL
[3]; Bglap-/- male mice fasted 16 hr, 120 min, mouse 2
  serum OCN: 10.3 ng/mL
[3]; Bglap-/- male mice fasted 16 hr, 120 min, mouse 3
  serum OCN: 10.8 ng/mL
[3]; Bglap-/- male mice fasted 16 hr, 120 min, mouse 4
  serum OCN: 12.0 ng/mL
[3]; Bglap-/- male mice fasted 16 hr
  in vivo half-life: 108 min
[3]; Bglap-/- male mice fasted 16 hr, listed as non-glycosylated ucOCN
  in vivo half-life: ~ 108 min
[3]; fed Bglap-/- male mice, 15 min, mouse 1
  serum OCN: 39.8 ng/mL
[3]; fed Bglap-/- male mice, 15 min, mouse 2
  serum OCN: 45.5 ng/mL
[3]; fed Bglap-/- male mice, 15 min, mouse 3
  serum OCN: 45.6 ng/mL
[3]; fed Bglap-/- male mice, 15 min, mouse 4
  serum OCN: 45.1 ng/mL
[3]; fed Bglap-/- male mice, 15 min, mouse 5
  serum OCN: 35.2 ng/mL
[3]; fed Bglap-/- male mice, 15 min, mouse 6
  serum OCN: 29.7 ng/mL
[3]; fed Bglap-/- male mice, 15 min, mouse 7
  serum OCN: 14.2 ng/mL
[3]; fed Bglap-/- male mice, 15 min, mouse 8
  serum OCN: 30.7 ng/mL
[3]; fed Bglap-/- male mice, 15 min, mouse 9
  serum OCN: 21.4 ng/mL
[3]; fed Bglap-/- male mice, 30 min, mouse 1
  serum OCN: 67.5 ng/mL
[3]; fed Bglap-/- male mice, 30 min, mouse 2
  serum OCN: 58.2 ng/mL
[3]; fed Bglap-/- male mice, 30 min, mouse 3
  serum OCN: 51.8 ng/mL
[3]; fed Bglap-/- male mice, 30 min, mouse 4
  serum OCN: 52.9 ng/mL
[3]; fed Bglap-/- male mice, 30 min, mouse 5
  serum OCN: 43.5 ng/mL
[3]; fed Bglap-/- male mice, 30 min, mouse 6
  serum OCN: 27.8 ng/mL
[3]; fed Bglap-/- male mice, 30 min, mouse 7
  serum OCN: 13.8 ng/mL
[3]; fed Bglap-/- male mice, 30 min, mouse 8
  serum OCN: 34.7 ng/mL
[3]; fed Bglap-/- male mice, 30 min, mouse 9
  serum OCN: 14.9 ng/mL
[3]; fed Bglap-/- male mice, 60 min, mouse 1
  serum OCN: 46.1 ng/mL
[3]; fed Bglap-/- male mice, 60 min, mouse 2
  serum OCN: 20.7 ng/mL
[3]; fed Bglap-/- male mice, 60 min, mouse 3
  serum OCN: 25.4 ng/mL
[3]; fed Bglap-/- male mice, 60 min, mouse 4
  serum OCN: 25.6 ng/mL
[3]; fed Bglap-/- male mice, 60 min, mouse 5
  serum OCN: 15.8 ng/mL
[3]; fed Bglap-/- male mice, 60 min, mouse 6
  serum OCN: 8.8 ng/mL
[3]; fed Bglap-/- male mice, 60 min, mouse 7
  serum OCN: 7.2 ng/mL
[3]; fed Bglap-/- male mice, 60 min, mouse 8
  serum OCN: 10.7 ng/mL
[3]; fed Bglap-/- male mice, 60 min, mouse 9
  serum OCN: 5.7 ng/mL
[3]; fed Bglap-/- male mice, 90 min, mouse 1
  serum OCN: 16.3 ng/mL
[3]; fed Bglap-/- male mice, 90 min, mouse 2
  serum OCN: 7.1 ng/mL
[3]; fed Bglap-/- male mice, 90 min, mouse 3
  serum OCN: 9.0 ng/mL
[3]; fed Bglap-/- male mice, 90 min, mouse 4
  serum OCN: 10.0 ng/mL
[3]; fed Bglap-/- male mice, 90 min, mouse 5
  serum OCN: 6.0 ng/mL
[3]; fed Bglap-/- male mice, 90 min, mouse 6
  serum OCN: 4.4 ng/mL
[3]; fed Bglap-/- male mice, 90 min, mouse 7
  serum OCN: 4.7 ng/mL
[3]; fed Bglap-/- male mice, 90 min, mouse 8
  serum OCN: 5.4 ng/mL
[3]; fed Bglap-/- male mice, 90 min, mouse 9
  serum OCN: 4.0 ng/mL
[3]; fed Bglap-/- male mice, 120 min, mouse 1
  serum OCN: 8.1 ng/mL
[3]; fed Bglap-/- male mice, 120 min, mouse 2
  serum OCN: 4.4 ng/mL
[3]; fed Bglap-/- male mice, 120 min, mouse 3
  serum OCN: 5.4 ng/mL
[3]; fed Bglap-/- male mice, 120 min, mouse 4
  serum OCN: 6.0 ng/mL
[3]; fed Bglap-/- male mice, 120 min, mouse 5
  serum OCN: 4.2 ng/mL
[3]; fed Bglap-/- male mice, 120 min, mouse 6
  serum OCN: 3.7 ng/mL
[3]; fed Bglap-/- male mice, 120 min, mouse 7
  serum OCN: 3.8 ng/mL
[3]; fed Bglap-/- male mice, 120 min, mouse 8
  serum OCN: 4.1 ng/mL
[3]; fed Bglap-/- male mice, 120 min, mouse 9
  serum OCN: 3.6 ng/mL
[3]; fed Bglap-/- male mice, 180 min, mouse 1
  serum OCN: 1.9 ng/mL
[3]; fed Bglap-/- male mice, 180 min, mouse 2
  serum OCN: 2.1 ng/mL
[3]; fed Bglap-/- male mice, 180 min, mouse 3
  serum OCN: 1.8 ng/mL
[3]; fed Bglap-/- male mice, 180 min, mouse 4
  serum OCN: 1.6 ng/mL
[3]; fed Bglap-/- male mice, 180 min, mouse 5
  serum OCN: 3.4 ng/mL
[3]; fed Bglap-/- male mice, 180 min, mouse 6
  serum OCN: 3.4 ng/mL
[3]; fed Bglap-/- male mice, 180 min, mouse 7
  serum OCN: 3.4 ng/mL
[3]; fed Bglap-/- male mice, 180 min, mouse 8
  serum OCN: 3.6 ng/mL
[3]; fed Bglap-/- male mice, 180 min, mouse 9
  serum OCN: 3.4 ng/mL
[3]; fed Bglap-/- male mice, dose 40 ng/g i.p., mouse 1
  Serum OCN at 120 minutes: 8.1 ng/mL
[3]; fed Bglap-/- male mice, dose 40 ng/g i.p., mouse 2
  Serum OCN at 120 minutes: 4.4 ng/mL
[3]; fed Bglap-/- male mice, dose 40 ng/g i.p., mouse 3
  Serum OCN at 120 minutes: 5.4 ng/mL
[3]; fed Bglap-/- male mice, dose 40 ng/g i.p., mouse 4
  Serum OCN at 120 minutes: 6 ng/mL
[3]; fed Bglap-/- male mice, dose 80 ng/g i.p., mouse 1
  Serum OCN at 120 minutes: 6.9 ng/mL
[3]; fed Bglap-/- male mice, dose 80 ng/g i.p., mouse 2
  Serum OCN at 120 minutes: 5.7 ng/mL
[3]; fed Bglap-/- male mice, dose 80 ng/g i.p., mouse 3
  Serum OCN at 120 minutes: 13 ng/mL
[3]; 30 min, mouse 1
  % OCN from initial (relative to maximum at 30 min): 100.0%
[3]; 30 min, mouse 2
  % OCN from initial (relative to maximum at 30 min): 100.0%
[3]; 30 min, mouse 3
  % OCN from initial (relative to maximum at 30 min): 100.0%
[3]; 30 min, mouse 4
  % OCN from initial (relative to maximum at 30 min): 100.0%
[3]; 60 min, mouse 1
  % OCN from initial (relative to maximum at 30 min): 75.4%
[3]; 60 min, mouse 2
  % OCN from initial (relative to maximum at 30 min): 76.8%
[3]; 60 min, mouse 3
  % OCN from initial (relative to maximum at 30 min): 78.6%
[3]; 60 min, mouse 4
  % OCN from initial (relative to maximum at 30 min): 88.7%
[3]; 90 min, mouse 1
  % OCN from initial (relative to maximum at 30 min): 53.9%
[3]; 90 min, mouse 2
  % OCN from initial (relative to maximum at 30 min): 65.1%
[3]; 90 min, mouse 3
  % OCN from initial (relative to maximum at 30 min): 67.6%
[3]; 90 min, mouse 4
  % OCN from initial (relative to maximum at 30 min): 78.8%
[3]; 120 min, mouse 1
  % OCN from initial (relative to maximum at 30 min): 40.6%
[3]; 120 min, mouse 2
  % OCN from initial (relative to maximum at 30 min): 54.6%
[3]; 120 min, mouse 3
  % OCN from initial (relative to maximum at 30 min): 56.7%
[3]; 120 min, mouse 4
  % OCN from initial (relative to maximum at 30 min): 71.4%
[3]; time 0 min of declining phase
  % OCN from initial, mean used for 1/2 life: 100.0%
[3]; time 30 min of declining phase
  % OCN from initial, mean used for 1/2 life: 79.9%
[3]; time 60 min of declining phase
  % OCN from initial, mean used for 1/2 life: 66.3%
[3]; time 90 min of declining phase
  % OCN from initial, mean used for 1/2 life: 55.8%
